This is an account of results in paper PMC3099347 (Journal of molecular biology, 2011).

Broadly, the stoichiometry N is a count of units in the complex or per binding partner.

This data set concerns the molecule itself. The data set is described as follows: SEC. A general note: In gel filtration, larger molecules generally elute earlier.

B1: Methanococcus jannaschii FKBP26 fragment 231-ΔIF (1-231Δ83-G-A-G-134) (domain or fragment)
chain: MVEKGKMVKISYDGYVDGKLFDTTNEELAKKEGIYNPAMIYGPVAIFAGEGQVLPGLDEAILEMDVGEEREVVLPPEKAFGKRGAGLAGKEVKYRIKIEEVVDDKKNIVKEIVKMYVPRLSDVKVTIRNGTVKIELPEFAPFIPNIQTAKMAIANEILKRLEDAEKVSFVETFERKKETKEENK
On to B1, for which the “stoichiometry N” value was 2.

B2: Methanococcus jannaschii FKBP26, construct 231 (full-length, residues 1-231) (natural protein, UniProt Q58235 1-231, looked up)
chain: MVEKGKMVKISYDGYVDGKLFDTTNEELAKKEGIYNPAMIYGPVAIFAGEGQVLPGLDEAILEMDVGEEREVVLPPEKAFGKRDPSKIKLIPLSEFTKRGIKPIKGLTITIDGIPGKIVSINSGRVLVDFNHELAGKEVKYRIKIEEVVDDKKNIVKEIVKMYVPRLSDVKVTIRNGTVKIELPEFAPFIPNIQTAKMAIANEILKRLEDAEKVSFVETFERKKETKEENK
Turning to B2, the “stoichiometry N” value is 2.
